Data on four substances can be found in patent US20130143793A1 (ZEALAND PHARMA A S, published 2013).

Holding throughout (assay): cell-based or functional assay
Test [1] concerns the target T1, human GLP-1 receptor (human, UniProt P43220 24-463).
Test [2] deals with T2, human CCK-B receptor (human, UniProt P32239 1-447).
T2 sequence (looked up): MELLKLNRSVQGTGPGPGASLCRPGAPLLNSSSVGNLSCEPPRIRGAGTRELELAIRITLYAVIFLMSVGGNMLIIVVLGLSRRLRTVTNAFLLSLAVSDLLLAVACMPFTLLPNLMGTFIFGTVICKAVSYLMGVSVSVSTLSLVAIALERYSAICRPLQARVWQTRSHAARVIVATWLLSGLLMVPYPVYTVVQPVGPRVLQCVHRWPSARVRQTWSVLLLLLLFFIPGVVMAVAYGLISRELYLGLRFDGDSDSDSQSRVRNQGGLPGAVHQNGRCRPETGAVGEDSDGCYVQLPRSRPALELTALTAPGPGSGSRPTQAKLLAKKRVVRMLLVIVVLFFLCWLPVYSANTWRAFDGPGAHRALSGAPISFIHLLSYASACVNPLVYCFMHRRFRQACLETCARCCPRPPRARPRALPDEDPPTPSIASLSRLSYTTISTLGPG

The target of test [3] is T3, mouse CCK-B receptor (mouse, UniProt P56481 1-453).
T3 sequence (looked up): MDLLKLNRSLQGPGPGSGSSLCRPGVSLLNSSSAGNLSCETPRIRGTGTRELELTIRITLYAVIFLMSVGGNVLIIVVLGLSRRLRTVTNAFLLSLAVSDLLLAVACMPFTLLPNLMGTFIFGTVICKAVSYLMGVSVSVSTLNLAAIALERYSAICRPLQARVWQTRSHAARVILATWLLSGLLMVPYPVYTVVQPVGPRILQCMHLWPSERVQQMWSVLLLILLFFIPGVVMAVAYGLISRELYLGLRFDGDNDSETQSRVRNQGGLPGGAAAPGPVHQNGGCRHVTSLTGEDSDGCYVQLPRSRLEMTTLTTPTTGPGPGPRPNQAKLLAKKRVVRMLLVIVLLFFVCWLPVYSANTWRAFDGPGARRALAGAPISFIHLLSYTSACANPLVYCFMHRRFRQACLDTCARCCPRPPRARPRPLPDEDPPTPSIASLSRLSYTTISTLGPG

For test [4], the target named is T1, human GLP-1 receptor. This is another data set of the same source.
The target in test [5] is T2, human CCK-B receptor. The source holds these as a separate data set.
The target of test [6] is T3, mouse CCK-B receptor. The source holds these as a separate data set.

Read-outs that look alike come from different tables or passages of the source.

T1 sequence (P43220 24-463): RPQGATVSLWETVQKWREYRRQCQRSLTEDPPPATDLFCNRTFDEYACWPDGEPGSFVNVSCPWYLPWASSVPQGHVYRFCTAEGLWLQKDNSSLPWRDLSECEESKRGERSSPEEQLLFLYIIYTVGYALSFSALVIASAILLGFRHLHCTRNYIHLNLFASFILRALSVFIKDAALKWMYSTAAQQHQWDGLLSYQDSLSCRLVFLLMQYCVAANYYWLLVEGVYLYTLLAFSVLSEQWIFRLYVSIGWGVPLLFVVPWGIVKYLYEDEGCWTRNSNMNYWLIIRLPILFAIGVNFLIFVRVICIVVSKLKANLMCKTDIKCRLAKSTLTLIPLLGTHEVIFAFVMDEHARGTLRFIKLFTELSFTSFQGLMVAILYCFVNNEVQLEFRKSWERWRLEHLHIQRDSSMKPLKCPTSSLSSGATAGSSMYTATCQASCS

On to “GLP-1(7-36)-[Gln1,Leu15]Gastrin17 (peptide)”, for which the results for the hGLP-1 R EC50 (cAMP) with human GLP-1 receptor [1] and with human GLP-1 receptor [4] were 0.145 nM and 0.03 nM, respectively. In addition, the results for the hCCK-B R EC50 (p-ERK) in the test with human CCK-B receptor [2] and with human CCK-B receptor [5] were 25.9 nM and 26 nM, respectively. Moreover, the values for the mCCK-B R EC50 (p-ERK) with mouse CCK-B receptor [3] and with mouse CCK-B receptor [6] were 73.1 nM and 73 nM, respectively.
In the case of “GLP-1(7-36)-K-[Gln1,Leu15]Gastrin17 (peptide)”, the hGLP-1 R EC50 (cAMP) in the test with human GLP-1 receptor [1] came out at 0.0842 nM; with human GLP-1 receptor [4], 0.03 nM. In addition, the hCCK-B R EC50 (p-ERK) with human CCK-B receptor [2] was 77.3 nM; with human CCK-B receptor [5], 77 nM. For the same substance, the mCCK-B R EC50 (p-ERK) in the test with mouse CCK-B receptor [3] amounted to 114 nM; in the test with mouse CCK-B receptor [6], 110 nM.
Regarding “GLP-1(7-36)-AAA-[Gln1,Leu15]Gastrin17 (peptide)”, the hGLP-1 R EC50 (cAMP) was 0.114 nM with human GLP-1 receptor [1] and 0.034 nM with human GLP-1 receptor [4]. Besides, the figures for the hCCK-B R EC50 (p-ERK) in the test with human CCK-B receptor [2] and in the test with human CCK-B receptor [5] were 18.8 nM and 19 nM, respectively. Besides, the results for the mCCK-B R EC50 (p-ERK) in the test with mouse CCK-B receptor [3] and in the test with mouse CCK-B receptor [6] were 54.1 nM and 54 nM, respectively.
For “GLP-1(7-36)-SKK-[Gln1,Leu15]Gastrin17 (peptide)”, the figures for the hGLP-1 R EC50 (cAMP) with human GLP-1 receptor [1] and with human GLP-1 receptor [4] were 0.116 nM and 0.031 nM, respectively. Besides, the values for the hCCK-B R EC50 (p-ERK) in the test with human CCK-B receptor [2] and in the test with human CCK-B receptor [5] were 15.6 nM and 16 nM, respectively. Besides, the mCCK-B R EC50 (p-ERK) with mouse CCK-B receptor [3] is 58.6 nM; in the test with mouse CCK-B receptor [6], 59 nM.
